Among the data in US6989144 are Baboon fluorescence intensity and Baboon platelets % positive values, retold here.

This assay has as its target GPVI on baboon platelets (baboon). Description: flow cytometry, washed baboon platelets; positive control. A general note: A flow cytometer gives signals particle by particle.

B1: convulxin (Cvx) purified from the venom of Crotalus durissus terrificus (ligand)
chain 1: GLHCPSDWYYYDQHCYRIFNEEMNWEDAEWFCTKQAKGAHLVSIKSAKEADFVAWMVTQNIEESFSHVSIGLRVQNKEKQCSTKWSDGSSVSYDNLLDLYITKCSLLKKETGFRKWFVASCIGKIPFVCKFPPQC
chain 2: GFCCPSHWSSYDRYCYKVFKQEMTWADAEKFCTQQHTGSHLVSFHSTEEVDFVVKMTHQSLKSTFFWIGANNIWNKCNWQWSDGTKPEYKEWHEEFECLISRTFDNQWLSAPCSDTYSFVCKFEA
B1 yielded a Baboon fluorescence intensity of 72 and a Baboon platelets % positive of 95%.
